Data: patent US9962447B2, “Supramolecular aggregates comprising maleimido cores” (UFPEPTIDES S.R.L., priority 2013, dated 2018)

Columns and labels:
[1] = tested on: electrically stimulated mouse vas deferens; assay: Electrically stimulated mouse vas deferens
Description: The bath temperature was set at 33° C. Tissues were continuously stimulated through two platinum ring electrodes with supramaximal rectangular pulses of 1 ms duration and 0.05 Hz frequency. A resting tension of 0.3 g was applied to the vas deferens.
assuming a slope value equal to unity, where CR indicate the ratio between agonist potency in the presence and absence of antagonist.

[2] = tested on: vas deferens tissues taken from NOP(+/+) mice; assay: Electrically stimulated vas deferens from NOP(+/+) mice; parameters: species or system mouse
Description: The bath temperature was set at 33° C. Tissues were continuously stimulated through two platinum ring electrodes with supramaximal rectangular pulses of 1 ms duration and 0.05 Hz frequency. A resting tension of 0.3 g was applied to the vas deferens. […] Following an equilibration period of 60 min, the contractions induced by electrical field stimulation were stable.

[3] = tested on: spontaneous locomotor activity; assay: Mouse locomotor activity, CD-1 mice, i.c.v.; format: in vivo
[4] = tested on: locomotor activity of NOP(−/−) mice; assay: Locomotor activity of NOP(−/−) mice; conditions: 0.25 nmole, 120 min post injection
Description: (§3) Mice were positioned in a square plastic cage (40×40 cm), one mouse per cage. Four mice were monitored in parallel. Mouse horizontal activity was monitored by a camera while vertical activity was measured by an infrared beam array. Animals locomotion was recorded for 60 min.
(§4) In vivo data are expressed as mean±sem of n animals. Data were analysed using one-way analysis of variance (ANOVA) followed by Dunnett post hoc test. Differences were considered statistically significant when p<0.05.

MOP receptor = MOP receptor (Homo sapiens, UniProt P35372); assay: Calcium mobilization in CHO cells expressing MOP receptor and Gαqi5; format: cell-based; conditions: inactive = inactive up to 1 μM
MOP receptor, sequence (P35372 whole entry): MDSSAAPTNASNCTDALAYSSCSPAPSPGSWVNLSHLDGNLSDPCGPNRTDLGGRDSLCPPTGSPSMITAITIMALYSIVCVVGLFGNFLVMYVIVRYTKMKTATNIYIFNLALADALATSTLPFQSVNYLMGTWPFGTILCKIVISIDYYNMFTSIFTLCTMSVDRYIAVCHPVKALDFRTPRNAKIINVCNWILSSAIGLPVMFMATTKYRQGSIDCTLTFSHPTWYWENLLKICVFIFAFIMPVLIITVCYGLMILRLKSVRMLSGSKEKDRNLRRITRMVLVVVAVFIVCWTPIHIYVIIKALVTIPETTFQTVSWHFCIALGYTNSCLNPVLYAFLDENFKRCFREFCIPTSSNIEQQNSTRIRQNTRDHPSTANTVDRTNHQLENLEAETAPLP
Description: (§1) Cell cultures were kept at 37° C. in 5% CO2 humidified air. In all cases experimental cultures were free from selection agents (hygromycin B, G418). When confluence was reached (3-4 days), cells were sub-cultured as required using trypsin EDTA and used for experimentation. Cells were seeded at a density of 50,000 cells/well into 96-well black, clear-bottom plates. After 24 hours incubation the cells were loaded with medium supplemented with 2.5 mM probenecid, 3 μM of the calcium sensitive fluorescent dye Fluo-4 AM and 0.01% pluronic acid, for 30 min at 37° C. Afterwards the loading solution was aspirated and 100 μl/well of assay buffer: Hank's Balanced Salt Solution (HBSS) supplemented with 20 mM HEPES, 2.5 mM probenecid and 500 μM Brilliant Black (Aldrich) was added. […] On-line additions were carried out in a volume of 50 μl/well. To facilitate drug diffusion into the wells in antagonist type experiments, the present studies were performed at 37° C. and three cycles of mixing (25 μl from each well moved up and down 3 times) were performed immediately after antagonist injection to the wells.
(§2) Four mice were monitored in parallel. […] Animals locomotion was recorded for 60 min.

human NOP receptor = human NOP receptor (Homo sapiens, UniProt P41146); assay: Calcium mobilization in CHO cells expressing human NOP receptor and Gαqi5; format: cell-based; conditions: inactive = inactive up to 1 μM
human NOP receptor, sequence (P41146 whole entry, the tested form may be a part): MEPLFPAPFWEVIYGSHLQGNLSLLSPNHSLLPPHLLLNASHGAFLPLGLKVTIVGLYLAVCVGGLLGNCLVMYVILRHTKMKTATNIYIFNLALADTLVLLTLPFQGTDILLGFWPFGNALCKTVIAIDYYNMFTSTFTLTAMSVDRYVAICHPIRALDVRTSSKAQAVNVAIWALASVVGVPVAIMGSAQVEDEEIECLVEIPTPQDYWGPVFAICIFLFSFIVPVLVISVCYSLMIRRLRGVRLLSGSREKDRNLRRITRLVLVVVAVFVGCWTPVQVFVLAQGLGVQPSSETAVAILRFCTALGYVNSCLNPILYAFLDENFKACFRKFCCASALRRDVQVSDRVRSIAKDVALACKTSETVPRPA
Description: as §1, with “Cells were maintained in culture medium consisting of Dulbecco's MEM/HAM'S F-12 (50/50) supplemented with 10% foetal calf serum, penicillin (100 IU/ml), streptomycin (100 μg/ml), fungizone (2.5 μg/ml), geneticin (G418; 200 μg/ml) and hygromycin B ([…]). Cell cultures” for “Cell cultures”, “50 μl/well. […]” for “50 μl/well. To facilitate drug diffusion into the wells in antagonist type experiments, the present studies were performed at 37° C. and three cycles of mixing (25 μl from each well moved up and down 3 times) were performed immediately after antagonist injection to the wells.”
as §2

[5] = tested on: vas deferens tissues taken from NOP(−/−) mice; assay: Electrically stimulated vas deferens from NOP(−/−) mice; parameters: species or system mouse; conditions: CL95% in brackets
Description: The mouse vas deferens were prepared as previously described (Calto et al., Eur J Pharmacol. 311, (1996) R3-5). Tissues were suspended in 5 ml organ baths containing heated Krebs solution (composition in mM: NaCl 118.5, KCl 4.7, KH2PO4 1.2, NaHCO3 25, glucose 10 and CaCl2 2.5) oxygenated with 95% O2 and 5% CO2. The bath temperature was set at 33° C. Tissues were continuously stimulated through two platinum ring electrodes with supramaximal rectangular pulses of 1 ms duration and 0.05 Hz frequency. A resting tension of 0.3 g was applied to the vas deferens. The electrically evoked contractions (twitches) were measured isotonically with a strain gauge transducer (Basile 7006, UgoBasile s.r.l., Varese, Italy) and recorded with the PC based acquisition system Power Lab (ADInstrument, USA). Following an equilibration period of 60 min, the contractions induced by electrical field stimulation were stable.

[6] = tested on: locomotor activity of NOP(+/+) mice; assay: Locomotor activity of NOP(+/+) mice; conditions: 0.25 nmole, 120 min post injection
Description: as §3, §4

B1: PWT2-N/OFQ: supramolecular aggregate of maleimido core PWT2 with nociceptin/orphanin FQ, made from PWT2 and [Cys18]N/OFQ-NH2 by thiol-Michael addition (conjugate)
peptide: SCQRDCLTCQEKLHPALDSFDLEVCILECEEKVFPSPLWTPCTKVMARSSWQLSPAAPEHVAAALYQPRASEMQHLRRMPRVRSLFQEQEEPEPGMEEAGEMEQKQLQKRFGGFTGARKSARKLANQKRFSEFMRQYLVLSMQSSQRRRTLHQNGNVC
reversal of inhibitory effect after washing the tissue [1]: rather resistant to washing
Emax ([1]; % inhibition of control twitch): 93 ± 2%
onset of inhibitory effect ([1]; after adding to the bath): slow inhibitory effect
pEC50 ([1]; inhibition of twitch response, CD1 mouse vas deferens, CL95% in brackets): 7.78 (7.57-7.99)
time for inhibitory effect to reach the plateau ([1]; mouse vas deferens): 10 min
pEC50 ([2]; CL95% in brackets): 7.92
Emax ([2]; maximal inhibition of electrically induced contractions): 91 ± 2%
locomotor activity in overnight experiment ([3]; i.c.v. at 11 AM, N/OFQ 10 nmole, PWT2-N/OFQ 0.25 nmole, measured 3 PM to 9 AM): statistically significant reduced distance travelled and rearing behaviour associate with increased immobility time for the whole time course of the experiment
acute effects on spontaneous locomotor activity ([3]; i.c.v., CD-1 mice, recorded for 120 min): slow onset of action and prolonged effects compared to the natural peptide
Distance travelled (m) [4]: 203 ± 26 m
Immobility time [4]: 2372 ± 525 s
Rearings (n) [4]: 625 ± 181 n
pEC50 (MOP receptor): inactive
pEC50 (CL95%) (human NOP receptor): 8.83
pEC50 [5]: 5.85 (5.55-6.15)
Distance travelled (m) [6]: 104 ± 19 m
Immobility time [6]: 3305 ± 390 s
Rearings (n) [6]: 96 ± 19 n
